Results from patent US20030022837A1 (Stanford University, published 2003).

Target: T1, His-Cdc20 (baculovirus-expressed human Cdc20) (human, UniProt Q12834 1-499)
T1 construct: Also used for the Cdc20 baculovirus of the SF9 co-infection; also called purified baculovirus-expressed Cdc20; Baculovirus-expressed Cdc20; not shown: His tag
Assay: SF9 cells co-infected with Emi1 and Cdc20 baculoviruses, anti-Emi1 immunoprecipitation, Cdc20 immunoblot

T1 sequence (Q12834 whole entry): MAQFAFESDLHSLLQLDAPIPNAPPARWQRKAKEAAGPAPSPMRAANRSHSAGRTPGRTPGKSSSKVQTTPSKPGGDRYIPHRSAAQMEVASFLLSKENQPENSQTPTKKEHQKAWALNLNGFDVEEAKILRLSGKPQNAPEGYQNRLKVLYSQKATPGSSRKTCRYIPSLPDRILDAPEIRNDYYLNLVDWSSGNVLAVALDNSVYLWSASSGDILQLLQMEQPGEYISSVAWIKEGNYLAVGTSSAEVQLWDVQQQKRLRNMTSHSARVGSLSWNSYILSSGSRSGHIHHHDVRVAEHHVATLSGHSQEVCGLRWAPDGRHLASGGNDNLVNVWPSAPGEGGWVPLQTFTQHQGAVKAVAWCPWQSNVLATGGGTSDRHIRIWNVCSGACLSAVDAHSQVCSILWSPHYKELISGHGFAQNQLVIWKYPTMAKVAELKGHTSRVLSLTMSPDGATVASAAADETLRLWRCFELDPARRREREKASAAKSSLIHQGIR

binding result: binds
B1: Xenopus Emi1 (Early Mitotic Inhibitor 1), full-length wild type (other)
chain: MMCGFASNQSPKKLSSKKSSATNVHLEISPVKHHPPCKVYENVQGSCLDSAICTTVAKCADLTDDLPVHNKENLLHRLNDLETNSYEEYSALQDSGYSSILQNDSPCQDETDRKVSDIQVRETPKNFMSYQRPFHTLSKINLPILRFEEAVCSTLKKMRKTNKKIDWNAVDVVCGGNYGLEHLIGKSMGLERFDILAELFHRDFKHLLTKILRHLSAMDLINVISVSTTWRKLLQKDNWAYNAYKLGCKELCEKRAKVSSHTATRDESLCRVPLASVQKVAASSLCTSKKQSKNKNGGLSCNRLAEFIEVAQTLKNDQSLKVCVDCGSPAKHDPCLHRAICTRESCKLDFCTRCSCKYHFSKSCLMSKPGSYRIPSEPLPGSKKSKQNLRRL
notes: 392 residues; also called xEmi1; Emi1p
